Data from US20200239541A1 (XYPHOS BIOSCIENCES, published 2020).
Numbering of substitutions follows the chain as printed. Numbers in names are those of the source.

Assays:
[1] = molecular target: T1, Y152A NKG2D-Fc (Example 5) (human); test: phage ELISA
T1 construct: also called non-natural Y152A NKG2D; not shown: Fc
T1 chain: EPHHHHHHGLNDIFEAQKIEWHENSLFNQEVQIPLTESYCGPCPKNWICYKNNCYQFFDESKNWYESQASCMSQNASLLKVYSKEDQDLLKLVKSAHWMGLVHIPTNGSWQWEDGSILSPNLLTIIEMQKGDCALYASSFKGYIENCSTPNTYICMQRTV

[2] = molecular target: T2, biotinylated human NKG2D (Example 1) (human, UniProt P26718 78-216); test: BLI (Octet), Kd = kOFF/kON
T2 construct: also called recombinant biotinylated NKG2D
T2 sequence (looked up): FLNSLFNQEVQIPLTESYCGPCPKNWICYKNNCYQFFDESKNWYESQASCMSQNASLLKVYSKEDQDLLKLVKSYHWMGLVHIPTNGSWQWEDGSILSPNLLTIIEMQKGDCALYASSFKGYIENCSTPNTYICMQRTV

[3] = molecular target: T3, human NKG2D-Fc (human, UniProt P26718 78-216); test: competition ELISA vs coated WT sMICA, 2 nM human NKG2D-Fc
T3 construct: also called natural NKG2D-Fc; not shown: Fc
T3 sequence (looked up): T2 sequence (looked up)
Text: (§1) To the NKG2DLs in the above example, we directly attached heterologous molecules such as a polypeptide to each of these 4 modified α1-α2 NKG2DLs using a linker peptide. Four His-tagged proteins (SEQ ID NOs.: 25-28) consisting of modified NKG2DLs with attached heterologous molecules were expressed in insect cells and purified to characterize their NKG2D binding affinities and kinetic binding parameters. Using a competitive binding ELISA, we determined the relative NKG2D binding affinities of the 4 modified α1-α2 variants.

[4] = molecular target: T2, biotinylated human NKG2D (Example 1); test: BLI (Octet), biotinylated human NKG2D coated, 100 nM analyte
[5] = molecular target: T3, human NKG2D-Fc; test: competition ELISA vs coated WT sMICA
Text: as §1

[6] = molecular target: T4, MICB-Fc (R&D Systems) (human, UniProt Q29980 23-298); test: ELISA, ligand-Fc coated, biotinylated NKG2D titrated
T4 construct: not shown: Fc of the bought reagent
T4 sequence (looked up): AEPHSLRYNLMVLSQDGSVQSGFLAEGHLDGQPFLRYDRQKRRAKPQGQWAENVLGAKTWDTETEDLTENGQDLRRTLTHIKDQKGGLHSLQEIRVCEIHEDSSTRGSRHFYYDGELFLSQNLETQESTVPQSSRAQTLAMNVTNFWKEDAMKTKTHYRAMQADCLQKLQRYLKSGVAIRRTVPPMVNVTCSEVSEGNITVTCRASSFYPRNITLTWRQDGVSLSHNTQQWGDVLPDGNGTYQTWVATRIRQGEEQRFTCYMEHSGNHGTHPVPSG
Protocol: (§2) In addition to purifying the above 3 Fc-fusion proteins NKG2D ligand-Fc fusion proteins MICB-Fc, ULBP1-Fc, ULBP2-Fc, ULBP3-Fc, and ULBP4-Fc were purchased from R&D Systems, Inc. (Minneapolis, Minn.). Binding of the different α1-α2 domain-Fc fusions to both natural and non-natural NKG2D ectodomain proteins was analyzed using a plate-based ELISA method. All of the natural and non-natural α1-α2 domain-Fc fusions were coated overnight at 4° C. onto separate wells of Maxisorp 96 well plates using a coating concentration of 2 μg/ml in phosphate-buffered saline (PBS). The plates were washed 3-times in PBS/0.05% Tween20 at 20-22° C., and blocked with 0.5% bovine serum albumin for 2 hours. The biotinylated natural and non-natural NKG2D receptor proteins were titrated against the plate-bound NKG2D ligands for 2 hours at 20-22° C., washed 3 times with PBS/0.05% Tween20 at 20-22° C., and the bound NKG2D proteins subsequently detected using a streptavidin-HRP secondary detection step and developed with 1-Step Ultra TMB Elisa.

[7] = molecular target: T5, ULBP1-Fc (R&D Systems) (human, UniProt Q9BZM6 26-216); test: as above
T5 construct: not shown: Fc of the bought reagent
T5 sequence (looked up): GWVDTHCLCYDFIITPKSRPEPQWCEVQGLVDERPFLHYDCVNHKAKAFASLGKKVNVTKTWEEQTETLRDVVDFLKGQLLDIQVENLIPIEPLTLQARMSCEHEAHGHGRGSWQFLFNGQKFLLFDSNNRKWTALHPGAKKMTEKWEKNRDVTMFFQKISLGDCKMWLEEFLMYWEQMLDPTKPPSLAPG
Protocol: as §2

[8] = molecular target: T6, ULBP2-Fc (R&D Systems) (human, UniProt Q9BZM5 26-217); test: as above
T6 construct: not shown: Fc of the bought reagent
T6 sequence (looked up): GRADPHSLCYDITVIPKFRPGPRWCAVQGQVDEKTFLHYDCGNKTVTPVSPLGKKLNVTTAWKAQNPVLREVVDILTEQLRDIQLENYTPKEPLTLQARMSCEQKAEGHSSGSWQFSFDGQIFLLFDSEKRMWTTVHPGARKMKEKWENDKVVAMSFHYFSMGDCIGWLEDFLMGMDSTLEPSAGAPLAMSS
Protocol: as §2

[9] = molecular target: T7, ULBP3-Fc (R&D Systems) (human, UniProt Q9BZM4 30-217); test: as above
T7 construct: not shown: Fc of the bought reagent
T7 sequence (looked up): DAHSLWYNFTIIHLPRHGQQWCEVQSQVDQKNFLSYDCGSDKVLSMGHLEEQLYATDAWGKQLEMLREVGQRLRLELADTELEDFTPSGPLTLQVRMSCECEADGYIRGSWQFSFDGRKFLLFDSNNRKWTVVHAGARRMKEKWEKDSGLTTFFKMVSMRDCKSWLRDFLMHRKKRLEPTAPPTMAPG
Protocol: as §2

[10] = molecular target: T8, ULBP4-Fc (R&D Systems) (human, UniProt Q8TD07 31-225); test: as above
T8 construct: not shown: Fc of the bought reagent
T8 sequence (looked up): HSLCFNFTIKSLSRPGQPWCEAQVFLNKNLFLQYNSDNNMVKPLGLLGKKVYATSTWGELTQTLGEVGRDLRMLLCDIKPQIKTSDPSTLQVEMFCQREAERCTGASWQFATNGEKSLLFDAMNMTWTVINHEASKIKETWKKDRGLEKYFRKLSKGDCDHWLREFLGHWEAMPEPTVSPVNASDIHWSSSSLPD
Protocol: as §2

B1: ULBP3.S1 (phage clone) (ligand)
chain: AAEPHSLWYNFTIIHLPRHGQQWCEVQSQVDQKNFLSYDCGSDKVLSMGHLEEQLYATDAWGKQLEMLREVGQRLRLELADTELEDFTPSGPLTLQVRMSCESEADGYIRGSWQFSFDGRKFLLFDSNNRKWTVVHAGARRMKEKWEKDSGLTTDLIRRSMGDCKSWLRDFLMHRKKRLEPTAP
[1]
  fold selective binding to Y152A NKG2D over natural NKG2D: > 10 fold

B2: ULBP3.S2 (phage clone) (ligand)
chain: B1 chain with D155Y, L156F, I157Y, R158L
[1]
  fold selective binding to Y152A NKG2D over natural NKG2D: > 10 fold

B3: ULBP2.S1 (phage clone) (ligand)
chain: AAEPHSLSYDITVIPKFRPGPRWCAVQGQVDEKTFLHYDCGNKTVTPVSPLGKKLNVTTAWKAQNPVLREVVDILTEQLWDIQLENYTPKEPLTLQARMSCEQKAEGHSSGSWQFSFDGQIFLLFDSEKRMWTTVHPGARKMKEKWENDKVVATTLYTWSMGDCIGWLEDFLMGMDSTLEPSAGAP
[1]
  fold selective binding to Y152A NKG2D over natural NKG2D: > 10 fold

B4: ULBP2.S2 (phage clone) (ligand)
chain: B3 chain with T155L, L156M, Y157R, T158I
[1]
  fold selective binding to Y152A NKG2D over natural NKG2D: > 10 fold

B5: ULBP2.S3 (phage clone) (ligand)
chain: B3 chain with T155K, T158L
[1]
  fold selective binding to Y152A NKG2D over natural NKG2D: > 10 fold

B6: WED-MICA α1-α2 domain (N69W, K152E, K154D) (ligand)
chain: EPHSLRYNLTVLSWDGSVQSGFLTEVHLDGQPFLRCDRQKCRAKPQGQWAEDVLGNKTWDRETRDLTGWGKDLRMTLAHIKDQKEGLHSLQEIRVCEIHEDNSTRSSQHFYYDGELFLSQNLETKEWTMPQSSRAQTLAMNVRNFLKEDAMETDTHYHAMHADCLQELRRYLKSGVVLRRTVPPMVQVTRSEASGGSGDRVTITCRASQDVSTAVAWYQQKPGKAPKLLIYSASFLYSGVPSRFSGSGSGTDFTLTISSLQPEDFATYYCQQSYTTPPTFGQGTKVEIKGGSSRSSSSGGGGSGGGGEVQLVESGGGLVQPGGSLRLSCAASGFTFTSTGISWVRQAPGKGLEWVGRIYPTNGSTNYADSVKGRFTISADTSKNTAYLQMNSLRAEDTAVYYCARTYGIYDLYVDYTEYVMDYWGQGTLVTVSSGGSSRSSSSGGGGSGGGGDIQMTQSPSSLSASGGSGQITVTCRASGFYPWNITLSWRQDGVSLSHDTQQWGDVLPDGQGTYQTWVATRISQGEEQRFTCYMEHSGQHSTHPVPSGKGSHHHHHH
notes: also called WED-α1-α2; MICwed
[2]
  Kd: 5.9 nM
[3]
  IC50: 4.4 nM
[4]
  koff: 0.0017 s⁻¹
  kon: 290000 M⁻¹ s⁻¹

B7: α1-α2 variant 15 (His-tagged, with attached heterologous polypeptide) (ligand)
chain: B6 chain with K125N, H161R
[2]
  Kd: 1.5 nM
[5]
  fold better binding than WT NKG2DL: 11 fold
[3]
  IC50: 1.7 nM
[4]
  koff: 0.00011 s⁻¹
  kon: 70000 M⁻¹ s⁻¹

B8: WT α1-α2 domain (soluble wild-type MICA, titrated) (ligand, UniProt Q29983 24-204, looked up)
chain: EPHSLRYNLTVLSWDGSVQSGFLTEVHLDGQPFLRCDRQKCRAKPQGQWAEDVLGNKTWDRETRDLTGNGKDLRMTLAHIKDQKEGLHSLQEIRVCEIHEDNSTRSSQHFYYDGELFLSQNLETKEWTMPQSSRAQTLAMNVRNFLKEDAMKTKTHYHAMHADCLQELRRYLKSGVVLRRT
notes: domain: α1-α2; also called WT MICA; WT NKG2DL
[3]
  IC50: 19.4 nM

B9: His-avitag natural NKG2D ectodomain, biotinylated (receptor)
chain: T1 chain with A96Y
notes: also called natural form of the ectodomain of NKG2D
[6]
  binding result: binds
[7]
  binding result: binds
[8]
  binding result: binds
[9]
  binding result: binds
[10]
  binding result: binds

B10: Y199A mutant NKG2D ectodomain (His-avitag, biotinylated) (receptor)
chain: T1 chain with A96Y, Y143A
notes: not shown: N-terminal His-avitag
[6]
  binding result: no binding
[7]
  binding result: no binding
[8]
  binding result: no binding
[9]
  binding result: no binding
[10]
  binding result: no binding

B11: Y152A mutant NKG2D ectodomain (His-avitag, biotinylated) (receptor)
chain: T1 chain
notes: also called Y152A non-natural NKG2D receptor; not shown: N-terminal His-avitag
[6]
  binding result: no binding
[7]
  binding result: no binding
[8]
  binding result: no binding
[9]
  binding result: no binding
[10]
  binding result: no binding

B12: double Y152A plus Y199A mutant NKG2D ectodomain (His-avitag, biotinylated) (receptor)
chain: T1 chain with Y143A
notes: as for B10
[6]
  binding result: no binding
[7]
  binding result: no binding
[8]
  binding result: no binding
[9]
  binding result: no binding
[10]
  binding result: no binding

B13: MICA25.17 (phage clone) (ligand)
chain: EPHSLRYNLTVLSWDGSVQSGFLTEVHLDGQPFLRCDRQKCRAKPQGQWAEDVLGNKTWDRETRDLTGWGTTLLMTLAHIKDQKEGLHSLQEIRVCEIHEDNSTRSSQHFYYDGELFLSQNLETLEWTMPQSSRAQTLAMNVRNFLKEDAMETDIGYRLMRADCLSELRRYLKSGVVLRRTV
[1]
  fold selective binding to Y152A NKG2D over natural NKG2D: > 10 fold

B14: MICA25.18 (phage clone) (ligand)
chain: B13 chain with T72F, L74R, I155R, G156S, Y157G, R158L
[1]
  fold selective binding to Y152A NKG2D over natural NKG2D: > 10 fold
